*1 amine or outer side, *2 acyl side, *3 side chain or, on linkers, in order; H or OH if unused. Where no end group is shown, it is not given here. Side-chain parts run from the residue outwards. [ ]: non-standard residue; d: D form. The star is where a group is joined. γGlu = O=C(O)[C@H](CCC(=O)[*:2])N[*:1]; Palmitoyl = CCCCCCCCCCCCCCCC(=O)*; Aib = CC(C)(N)C(=O)O
B1: SEQ ID NO: (71) (peptide)
peptide: H[dS]QGTFTSDLSKQMDSRRAQDFIEWLKNTGPSSGAPPPSK([γGlu-Palmitoyl])-NH2
modifications: N-terminus assumed
SMILES: CCCCCCCCCCCCCCCC(=O)N[C@@H](CCC(=O)NCCCC[C@H](NC(=O)[C@H](CO)NC(=O)[C@@H]1CCCN1C(=O)[C@@H]1CCCN1C(=O)[C@@H]1CCCN1C(=O)[C@H](C)NC(=O)CNC(=O)[C@H](CO)NC(=O)[C@H](CO)NC(=O)[C@@H]1CCCN1C(=O)CNC(=O)[C@@H](NC(=O)[C@H](CC(N)=O)NC(=O)[C@H](CCCCN)NC(=O)[C@H](CC(C)C)NC(=O)[C@H](Cc1c[nH]c2ccccc12)NC(=O)[C@H](CCC(=O)O)NC(=O)[C@@H](NC(=O)[C@H](Cc1ccccc1)NC(=O)[C@H](CC(=O)O)NC(=O)[C@H](CCC(N)=O)NC(=O)[C@H](C)NC(=O)[C@H](CCCNC(=N)N)NC(=O)[C@H](CCCNC(=N)N)NC(=O)[C@H](CO)NC(=O)[C@H](CC(=O)O)NC(=O)[C@H](CCSC)NC(=O)[C@H](CCC(N)=O)NC(=O)[C@H](CCCCN)NC(=O)[C@H](CO)NC(=O)[C@H](CC(C)C)NC(=O)[C@H](CC(=O)O)NC(=O)[C@H](CO)NC(=O)[C@@H](NC(=O)[C@H](Cc1ccccc1)NC(=O)[C@@H](NC(=O)CNC(=O)[C@H](CCC(N)=O)NC(=O)[C@@H](CO)NC(=O)[C@@H](N)Cc1c[nH]cn1)[C@@H](C)O)[C@@H](C)O)[C@@H](C)CC)[C@@H](C)O)C(N)=O)C(=O)O
B2: SEQ ID NO: (64) (peptide)
peptide: H[dS]QGTFTSDLSKQMESRRAQDFIEWLKNAGPSSGAPPPSK([γGlu-Palmitoyl])-NH2
modifications: N-terminus assumed
SMILES: CCCCCCCCCCCCCCCC(=O)N[C@@H](CCC(=O)NCCCC[C@H](NC(=O)[C@H](CO)NC(=O)[C@@H]1CCCN1C(=O)[C@@H]1CCCN1C(=O)[C@@H]1CCCN1C(=O)[C@H](C)NC(=O)CNC(=O)[C@H](CO)NC(=O)[C@H](CO)NC(=O)[C@@H]1CCCN1C(=O)CNC(=O)[C@H](C)NC(=O)[C@H](CC(N)=O)NC(=O)[C@H](CCCCN)NC(=O)[C@H](CC(C)C)NC(=O)[C@H](Cc1c[nH]c2ccccc12)NC(=O)[C@H](CCC(=O)O)NC(=O)[C@@H](NC(=O)[C@H](Cc1ccccc1)NC(=O)[C@H](CC(=O)O)NC(=O)[C@H](CCC(N)=O)NC(=O)[C@H](C)NC(=O)[C@H](CCCNC(=N)N)NC(=O)[C@H](CCCNC(=N)N)NC(=O)[C@H](CO)NC(=O)[C@H](CCC(=O)O)NC(=O)[C@H](CCSC)NC(=O)[C@H](CCC(N)=O)NC(=O)[C@H](CCCCN)NC(=O)[C@H](CO)NC(=O)[C@H](CC(C)C)NC(=O)[C@H](CC(=O)O)NC(=O)[C@H](CO)NC(=O)[C@@H](NC(=O)[C@H](Cc1ccccc1)NC(=O)[C@@H](NC(=O)CNC(=O)[C@H](CCC(N)=O)NC(=O)[C@@H](CO)NC(=O)[C@@H](N)Cc1c[nH]cn1)[C@@H](C)O)[C@@H](C)O)[C@@H](C)CC)C(N)=O)C(=O)O
B3: SEQ ID NO: (65) (peptide)
peptide: H[dS]QGTFTSDLSKQMDSRRAQDFIEWLKSGGPSSGAPPPSK([γGlu-Palmitoyl])-NH2
modifications: N-terminus assumed
SMILES: CCCCCCCCCCCCCCCC(=O)N[C@@H](CCC(=O)NCCCC[C@H](NC(=O)[C@H](CO)NC(=O)[C@@H]1CCCN1C(=O)[C@@H]1CCCN1C(=O)[C@@H]1CCCN1C(=O)[C@H](C)NC(=O)CNC(=O)[C@H](CO)NC(=O)[C@H](CO)NC(=O)[C@@H]1CCCN1C(=O)CNC(=O)CNC(=O)[C@H](CO)NC(=O)[C@H](CCCCN)NC(=O)[C@H](CC(C)C)NC(=O)[C@H](Cc1c[nH]c2ccccc12)NC(=O)[C@H](CCC(=O)O)NC(=O)[C@@H](NC(=O)[C@H](Cc1ccccc1)NC(=O)[C@H](CC(=O)O)NC(=O)[C@H](CCC(N)=O)NC(=O)[C@H](C)NC(=O)[C@H](CCCNC(=N)N)NC(=O)[C@H](CCCNC(=N)N)NC(=O)[C@H](CO)NC(=O)[C@H](CC(=O)O)NC(=O)[C@H](CCSC)NC(=O)[C@H](CCC(N)=O)NC(=O)[C@H](CCCCN)NC(=O)[C@H](CO)NC(=O)[C@H](CC(C)C)NC(=O)[C@H](CC(=O)O)NC(=O)[C@H](CO)NC(=O)[C@@H](NC(=O)[C@H](Cc1ccccc1)NC(=O)[C@@H](NC(=O)CNC(=O)[C@H](CCC(N)=O)NC(=O)[C@@H](CO)NC(=O)[C@@H](N)Cc1c[nH]cn1)[C@@H](C)O)[C@@H](C)O)[C@@H](C)CC)C(N)=O)C(=O)O
B4: SEQ ID NO: (62) (peptide)
peptide: H[Aib]QGTFTSDLSKQMESRRAQDFIEWLKNGGPSSGAPPPSK([γGlu-Palmitoyl])-NH2
modifications: N-terminus assumed
SMILES: CCCCCCCCCCCCCCCC(=O)N[C@@H](CCC(=O)NCCCC[C@H](NC(=O)[C@H](CO)NC(=O)[C@@H]1CCCN1C(=O)[C@@H]1CCCN1C(=O)[C@@H]1CCCN1C(=O)[C@H](C)NC(=O)CNC(=O)[C@H](CO)NC(=O)[C@H](CO)NC(=O)[C@@H]1CCCN1C(=O)CNC(=O)CNC(=O)[C@H](CC(N)=O)NC(=O)[C@H](CCCCN)NC(=O)[C@H](CC(C)C)NC(=O)[C@H](Cc1c[nH]c2ccccc12)NC(=O)[C@H](CCC(=O)O)NC(=O)[C@@H](NC(=O)[C@H](Cc1ccccc1)NC(=O)[C@H](CC(=O)O)NC(=O)[C@H](CCC(N)=O)NC(=O)[C@H](C)NC(=O)[C@H](CCCNC(=N)N)NC(=O)[C@H](CCCNC(=N)N)NC(=O)[C@H](CO)NC(=O)[C@H](CCC(=O)O)NC(=O)[C@H](CCSC)NC(=O)[C@H](CCC(N)=O)NC(=O)[C@H](CCCCN)NC(=O)[C@H](CO)NC(=O)[C@H](CC(C)C)NC(=O)[C@H](CC(=O)O)NC(=O)[C@H](CO)NC(=O)[C@@H](NC(=O)[C@H](Cc1ccccc1)NC(=O)[C@@H](NC(=O)CNC(=O)[C@H](CCC(N)=O)NC(=O)C(C)(C)NC(=O)[C@@H](N)Cc1c[nH]cn1)[C@@H](C)O)[C@@H](C)O)[C@@H](C)CC)C(N)=O)C(=O)O
B5: SEQ ID NO: (59) (peptide)
peptide: H[Aib]QGTFTSDLSKQMDSRRAQDFIEWLKNGGPSSGAPPPSK([γGlu-Palmitoyl])-NH2
modifications: N-terminus assumed
SMILES: CCCCCCCCCCCCCCCC(=O)N[C@@H](CCC(=O)NCCCC[C@H](NC(=O)[C@H](CO)NC(=O)[C@@H]1CCCN1C(=O)[C@@H]1CCCN1C(=O)[C@@H]1CCCN1C(=O)[C@H](C)NC(=O)CNC(=O)[C@H](CO)NC(=O)[C@H](CO)NC(=O)[C@@H]1CCCN1C(=O)CNC(=O)CNC(=O)[C@H](CC(N)=O)NC(=O)[C@H](CCCCN)NC(=O)[C@H](CC(C)C)NC(=O)[C@H](Cc1c[nH]c2ccccc12)NC(=O)[C@H](CCC(=O)O)NC(=O)[C@@H](NC(=O)[C@H](Cc1ccccc1)NC(=O)[C@H](CC(=O)O)NC(=O)[C@H](CCC(N)=O)NC(=O)[C@H](C)NC(=O)[C@H](CCCNC(=N)N)NC(=O)[C@H](CCCNC(=N)N)NC(=O)[C@H](CO)NC(=O)[C@H](CC(=O)O)NC(=O)[C@H](CCSC)NC(=O)[C@H](CCC(N)=O)NC(=O)[C@H](CCCCN)NC(=O)[C@H](CO)NC(=O)[C@H](CC(C)C)NC(=O)[C@H](CC(=O)O)NC(=O)[C@H](CO)NC(=O)[C@@H](NC(=O)[C@H](Cc1ccccc1)NC(=O)[C@@H](NC(=O)CNC(=O)[C@H](CCC(N)=O)NC(=O)C(C)(C)NC(=O)[C@@H](N)Cc1c[nH]cn1)[C@@H](C)O)[C@@H](C)O)[C@@H](C)CC)C(N)=O)C(=O)O
B6: SEQ ID NO: (61) (peptide)
peptide: H[dS]QGTFTSDLSKQMESRRAQDFIEWLKNGGPSSGAPPPSK([γGlu-Palmitoyl])-NH2
modifications: N-terminus assumed
SMILES: CCCCCCCCCCCCCCCC(=O)N[C@@H](CCC(=O)NCCCC[C@H](NC(=O)[C@H](CO)NC(=O)[C@@H]1CCCN1C(=O)[C@@H]1CCCN1C(=O)[C@@H]1CCCN1C(=O)[C@H](C)NC(=O)CNC(=O)[C@H](CO)NC(=O)[C@H](CO)NC(=O)[C@@H]1CCCN1C(=O)CNC(=O)CNC(=O)[C@H](CC(N)=O)NC(=O)[C@H](CCCCN)NC(=O)[C@H](CC(C)C)NC(=O)[C@H](Cc1c[nH]c2ccccc12)NC(=O)[C@H](CCC(=O)O)NC(=O)[C@@H](NC(=O)[C@H](Cc1ccccc1)NC(=O)[C@H](CC(=O)O)NC(=O)[C@H](CCC(N)=O)NC(=O)[C@H](C)NC(=O)[C@H](CCCNC(=N)N)NC(=O)[C@H](CCCNC(=N)N)NC(=O)[C@H](CO)NC(=O)[C@H](CCC(=O)O)NC(=O)[C@H](CCSC)NC(=O)[C@H](CCC(N)=O)NC(=O)[C@H](CCCCN)NC(=O)[C@H](CO)NC(=O)[C@H](CC(C)C)NC(=O)[C@H](CC(=O)O)NC(=O)[C@H](CO)NC(=O)[C@@H](NC(=O)[C@H](Cc1ccccc1)NC(=O)[C@@H](NC(=O)CNC(=O)[C@H](CCC(N)=O)NC(=O)[C@@H](CO)NC(=O)[C@@H](N)Cc1c[nH]cn1)[C@@H](C)O)[C@@H](C)O)[C@@H](C)CC)C(N)=O)C(=O)O

What was measured:
[1] = target: human GLP-1 receptor (human, UniProt P43220 24-463); test: cell-based or functional assay
[2] = target: human glucagon receptor (human, UniProt P47871 26-477); test: cell-based or functional assay
human glucagon receptor, sequence (P47871 26-477): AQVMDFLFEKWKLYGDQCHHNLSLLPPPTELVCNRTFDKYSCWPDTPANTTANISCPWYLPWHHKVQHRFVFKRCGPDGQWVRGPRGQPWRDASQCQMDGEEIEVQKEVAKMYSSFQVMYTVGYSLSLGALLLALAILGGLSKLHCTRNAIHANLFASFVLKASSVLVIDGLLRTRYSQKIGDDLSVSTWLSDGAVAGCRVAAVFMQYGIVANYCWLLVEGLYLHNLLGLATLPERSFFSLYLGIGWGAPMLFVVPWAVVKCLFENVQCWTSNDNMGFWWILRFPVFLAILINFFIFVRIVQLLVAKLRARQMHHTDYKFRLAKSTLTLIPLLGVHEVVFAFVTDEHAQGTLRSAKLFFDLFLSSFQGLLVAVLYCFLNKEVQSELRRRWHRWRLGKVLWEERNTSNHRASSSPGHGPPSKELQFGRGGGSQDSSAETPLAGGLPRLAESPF

Binder | EC50 hGLP-1R (cAMP formation) [1] | EC50 hGlucagonR (cAMP formation) [2]
HGEGTFTSDLSKQMDSRRAQDFIEWLKNGGPSSGAPPPS-NH2 [SEQ ID NO: (4)] | 0.0174 nM | 565 nM
B1 | 0.0056 nM | –
B2 | 0.0219 nM | 0.067 nM
H[dS]QGTFTSDLSKQMDSRRAQDFIEWLKNAGPSSGAPPPSK([γGlu-Palmitoyl])-NH2 [SEQ ID NO: (67)] | 0.0215 nM | –
B3 | 0.015 nM | 0.0057 nM
B4 | 0.0063 nM | 0.13 nM
HSQGTFTSDLSKQMDSRRAQDFIEWLKNGGPSSGAPPPK([γGlu-Palmitoyl])-NH2 [SEQ ID NO: (6)] | 0.0031 nM | –
B5 | 0.0029 nM | 0.0409 nM
B6 | 0.0042 nM | 0.0304 nM
H[dS]QGTFTSDLSKQMDSRRAQDFIEWLKN[dA]GPSSGAPPPSK([γGlu-Palmitoyl])-NH2 [SEQ ID NO: (68)] | 0.0123 nM | –
